The values below come from article PMC4570195, “Self-sorting heterodimeric coiled coil peptides with defined and tuneable self-assembly properties” (Scientific Reports, 2015).

Cy5 = fluorescent dye, coupled as Cy5-NHS

B2: KI (peptide)
peptide: Ac-KIAALKEKIAALKEKNAALKWKIAALKE-NH2
notes: de novo designed 28-residue coiled coil peptide, four heptads (gabcdef); also called KI peptide; source: synthetic peptide (solid phase, Fmoc), purified by reverse phase HPLC

Assay [1] has as its target EV-Cy5. Briefly: Fluorescence of EV-Cy5 upon addition of EI and KI. The source says: To further experimentally verify that the peptides undergo thermodynamic self-sorting we modified EV at the N-terminus with a fluorescent dye (Cy5). Although not considered very environmentally sensitive, cyanine dyes tethered to the terminus of single-stranded DNA display significant changes in fluorescence quantum yield, emission lifetime, and fluorescence anisotropy decay upon hybridization with a complementary DNA strand[34][35]. […] This change in binding partner was also supported by simulations (Fig. 6b). The smaller amount of monomeric EV-Cy5 seen in the experiment after addition of EI is presumably an effect of the kinetics involved in the exchange of partners in the heterodimer. The simulations were run until equilibrium whereas the experimental data was acquired after 30 minutes incubation and the exchange was likely not fully completed within this time frame.
Figure 6 (a) Fluorescence spectra and (b) change in normalized intensity at 667 nm for EV-Cy5 upon addition of EI and KI. Addition of the complimentary peptide KI, thus forming EVKI dimers, results in an increase in fluorescence intensity. Subsequent addition of EI reduces the fluorescence intensity due to formation of EIKI dimers, leaving free EV-Cy5. […]
Fmoc-protected amino acids were purchased from Iris Biotech GmbH. […] Peptide concentrations were determined by UV absorbance (ε280(Trp) = 5690 M^−1 cm^−1). […]

Assay [2] has as its target T1, KV (N-terminal acetylation).
T1 construct: de novo designed 28-residue coiled coil peptide, four heptads (gabcdef); also called KV peptide; source: synthetic peptide (solid phase, Fmoc), purified by reverse phase HPLC
T1 peptide: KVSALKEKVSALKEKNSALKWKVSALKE
Put plainly: circular dichroism, thermal denaturation; Kd at 75 °C, as used for the self-sorting simulations. The note with it: both partners purified.

Assay [3] has as its target T1, KV. Briefly: method of continuous variation by circular dichroism; molar ratio of each monomer varied, ellipticity at 222 nm measured. The following applies: both partners purified. A general note: Circular dichroism is widely used to follow secondary structure.
For assay [4], the target named is B2. Described as above. The following applies: both partners purified.
Assay [5] has as its target T1, KV. Briefly: circular dichroism, thermal denaturation; thermal denaturation at different peptide monomer concentrations, Tm related to Kd; Kd at 20 °C; 10 mM phosphate buffer pH 7. The following applies: both partners purified.
Assay [6] addresses B2. Described as above. The note with it: both partners purified.
For assay [7], the target named is T2, EV-Cy5 (Cy5 at the N-terminus (Cy5-NHS used instead of acetic anhydride)).
T2 construct: de novo designed 28-residue coiled coil peptide; also called EV modified at the N-terminus with Cy5; source: synthetic peptide (solid phase, Fmoc), purified by reverse phase HPLC
T2 peptide: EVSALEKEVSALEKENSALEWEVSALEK
Put plainly: fluorescence emission intensity of a Cy5-labelled peptide; EV-Cy5 5 μM, KI 5 μM added, then EI 5 μM; 30 minutes incubation; intensity at 667 nm. The note with it: both partners purified.

The target of assay [8] is B2. Put plainly: circular dichroism, thermal denaturation; Kd at 75 °C, as used for the self-sorting simulations. The following applies: both partners purified.

For the molecule “EV-Cy5: EV modified at the N-terminus with a fluorescent dye (Cy5) (Cy5-EVSALEKEVSALEKENSALEWEVSALEK-NH2)”, the “change in fluorescence emission intensity, EI added prior to KI” value at EV-Cy5 [1] (EI added to EV-Cy5 prior to KI, otherwise identical conditions) is given as “a slight decrease in fluorescence intensity”. In the assay with EV-Cy5 [1] (EV-Cy5 5 μM, KI 5 μM then EI 5 μM, 30 min incubation, 667 nm, PB pH 7), the “change in fluorescence emission intensity” value was “a drop in emission intensity, close to the original intensity of the monomeric EV-Cy5”.

B1: EI (peptide)
peptide: Ac-EIAALEKEIAALEKENAALEWEIAALEK-NH2
notes: de novo designed 28-residue coiled coil peptide, four heptads (gabcdef); also called EI peptide; source: synthetic peptide (solid phase, Fmoc), purified by reverse phase HPLC
For orientation: Kd means the concentration at which binding is half-saturated. Usually stoichiometry N stands for a count of units in the complex or per binding partner. B1: the results for the Kd with KV [2], in the assay with KV [5] and in the assay with KI [6] were > 200 nM, 72 nM and < 0.1 nM, respectively. Besides, the “stoichiometry N” value with KV [3] and in the assay with KI [4] was 1 throughout.
For B2, in the assay with EV-Cy5 [7], the binding result is given as “binds”.

B3: EV (peptide)
peptide: Ac-EVSALEKEVSALEKENSALEWEVSALEK-NH2
notes: de novo designed 28-residue coiled coil peptide, four heptads (gabcdef); also called EV peptide; source: synthetic peptide (solid phase, Fmoc), purified by reverse phase HPLC
As for B3, the Kd in the assay with KI [8] was > 200 nM; with KV [5], 1400 nM; in the assay with KI [6] it was 85 nM. The “stoichiometry N” value with KV [3] and with KI [4] was 1 throughout.
